From PMC8488560

Biological target: clathrin (triskelia purified from pig brain clathrin-coated vesicles) (pig)
Test: cryo-EM structure; clathrin cages assembled with a 60-fold molar excess of β2HA; single particle analysis of minicoat cages, signal subtraction, masked 3D classification and localized reconstruction; compared with clathrin-only minicoat cages

stoichiometry N (β2HA per terminal domain): 0.5
Substance: β2-adaptin 616-951, hinge and appendage of the human β2 subunit of the AP2 complex (β2HA) (from UniProt P63010-2 616-951) (domain or fragment)
